Source: patent US11344542B2, “Treatment of aging-associated disease with modulators of leukotriene A4 hydrolase” (Alkahest, Inc., priority 2018, dated 2022)

Columns and labels:
[1] = system: mRNA levels of neuronal and glial genes; assay: qPCR of mRNA levels in young mice treated with recombinant human LTA4H protein; type: in vivo, mouse; conditions: paradigm 1; vs PBS
Description: Brain tissue was sectioned or lysed and analyzed for markers of neurogenesis and aging by standard histological and biochemical methods, including qRT-PCR, Western blot, ELISA, and immunohistochemistry.
Young, 8-week old wild-type (WT; C57BL/6) mice were homogenized between groups by body weight. Following group determination, mice were injected intraperitoneally (IP) with BrdU (5-bromo-2′-deoxyuridine) formulated in PBS (phosphate buffered saline) at a final concentration of 10 mg/mL dosed at 150 mg/kg for 5 days Immediately following the BrdU dosing, group 1 was injected intravenously (IV) with PBS control and group 2 with recombinant human LTA4H protein daily for 7 consecutive days. One week after the completion of LTA4H administration, in week 3, mice in both treatment groups were injected IP with EdU (5-ethynyl-2′-deoxyuridine) formulated in PBS at a final concentration of 10 mg/mL and dosed at 50 mg/kg for 5 days. Behavioral assays were executed in week 5 and 6, and animals were sacrificed, and tissues collected immediately after completion of behavior testing in week 6. FIG. 3 depicts the treatment paradigm and injection timing for the study.
FIG. 9 reports the results of quantitative polymerase chain reaction (qPCR) quantifying mRNA levels of vesicular glutamate […] (vglut1), synapsin 1 (syn1), synaptophysin (syp), early growth response 1 (egr1), doublecortin (dcx), beta III tubulin (tuj1), glial acidic fibrillary protein (gfap), SRY-Box 2 (sox2), oligodendrocyte transcription factor 2 in 3 months old (young) wild-type (C57BL/6) mice treated with recombinant human LTA4H protein or phosphate buffered saline (PBS) control. […] Egr1 is an immediate early gene and a reduction in expression is indicative of a depression of neuronal activity. Tuj1 is a neuronal marker and the reduction in expression points to detrimental effects on neurons. […] Overall the decreases in neuronal markers and trends towards decreases in oligodendrocyte markers indicate a detrimental effect on neuronal activity and integrity in LTA4H treated animals. […]

[2] = system: 8-week old (young) wild-type (C57BL/6) mice; assay: Contextual and cued fear conditioning in young mice treated with recombinant human LTA4H protein; type: in vivo, mouse
Description: Mice were brought into the testing room immediately before their trial to avoid exposure to sounds and scents from testing. Day 1: For training, mice were placed in the chambers, bright house light and fan on, for 2 minutes. Then an auditory cue (2000 Hz, 70 dB, conditioned stimulus (CS)) was presented for 30 seconds. A 2 second foot shock (0.6 mA; unconditioned stimulus (US)) was administered for the final 2 seconds of the CS. This procedure was repeated once, each after a 2 minute interval, and the mouse was removed from the chamber 30 seconds after the second shock. The pans, chamber walls and grid floors were cleaned with 70% ethanol between trials. Day 2: Seventy-two hours after the training, the mouse was returned to the same chamber in which the training occurred (memory for context), and freezing behavior was recorded for 3 min. The mouse was returned to its home cage. The pans, chamber walls, and grid floors were cleaned with 70% ethanol between trials. Day 3: 24 hours after context testing, the mouse was returned to the same chamber and freezing was recorded in a novel environment (altered context) and in response to the cue (memory for cue). […] The mouse was placed in the novel environment and freezing was recorded for 2 minutes. The auditory cue (2000 Hz, 70 dB, CS) was then presented for 30 seconds, and freezing was again recorded for 2 minutes. […]

B1: recombinant human LTA4H: Recombinant human LTA4H (Bio-techne, 4008-SN), leukotriene A4 hydrolase enzyme, dosed by tail vein i.v. injection (protein, UniProt P09960 2-611, looked up)
Leukotriene A-4 hydrolase: PEIVDTCSLASPASVCRTKHLHLRCSVDFTRRTLTGTAALTVQSQEDNLRSLVLDTKDLTIEKVVINGQEVKYALGERQSYKGSPMEISLPIALSKNQEIVIEISFETSPKSSALQWLTPEQTSGKEHPYLFSQCQAIHCRAILPCQDTPSVKLTYTAEVSVPKELVALMSAIRDGETPDPEDPSRKIYKFIQKVPIPCYLIALVVGALESRQIGPRTLVWSEKEQVEKSAYEFSETESMLKIAEDLGGPYVWGQYDLLVLPPSFPYGGMENPCLTFVTPTLLAGDKSLSNVIAHEISHSWTGNLVTNKTWDHFWLNEGHTVYLERHICGRLFGEKFRHFNALGGWGELQNSVKTFGETHPFTKLVVDLTDIDPDVAYSSVPYEKGFALLFYLEQLLGGPEIFLGFLKAYVEKFSYKSITTDDWKDFLYSYFKDKVDVLNQVDWNAWLYSPGLPPIKPNYDMTLTNACIALSQRWITAKEDDLNSFNATDLKDLSSHQLNEFLAQTLQRAPLPLGHIKRMQEVYNFNAINNSEIRFRWLRLCIQSKWEDAIPLALKMATEQGRMKFTRPLFKDLAAFDKSHDQAVRTYQEHKASMHPVTAMLVGKDLKVD
egr1 mRNA expression (qPCR) [1]: significant decrease | olig 2 mRNA expression (qPCR) [1]: trend towards a decrease | tuj1 mRNA expression (qPCR) [1]: significant decrease | percent time freezing during contextual testing ([2]; 72 hours after training, IV daily for 7 consecutive days, vs PBS): significantly decreased freezing | percent time freezing during cued testing ([2]; pre/post cue tone, difference between treatment groups): no significant difference between treatment groups
